Target: T1, human MPC1L/MPC2 heterodimer (Homo sapiens, UniProt P0DKB6;O95563)
T1 construct: MPC1L, human, wild-type cDNA, UniProt P0DKB6; MPC2, human, wild-type cDNA, UniProt O95563; Heterodimer formed beforehand (co-expressed and co-purified) and then mixed with the nanobody or the Pro-macrobody; also called hMPC1L/MPC2; hMPC1L/2 heterodimer; source: S. cerevisiae W303-1B, purified from mitochondria (LMNG, Nickel Sepharose, on-column TEV digestion); not shown: His tag, C-terminal, …
Assay: pull-down; 75 μg hMPC1L/MPC2 incubated at a stoichiometric ratio with each nanobody for 1 hour at 4°C, then Ni-NTA Superflow resin 1 hour at 4°C; washed with buffer B, eluted with 250 mM imidazole; fractions on SDS-PAGE
Conditions: both partners purified

T1 sequence (P0DKB6 whole entry, chain 1 of 2): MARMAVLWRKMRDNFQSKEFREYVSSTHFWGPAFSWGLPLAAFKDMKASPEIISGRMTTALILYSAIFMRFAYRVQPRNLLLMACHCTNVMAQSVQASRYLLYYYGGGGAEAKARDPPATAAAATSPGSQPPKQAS
T1 sequence (O95563 whole entry, chain 2 of 2): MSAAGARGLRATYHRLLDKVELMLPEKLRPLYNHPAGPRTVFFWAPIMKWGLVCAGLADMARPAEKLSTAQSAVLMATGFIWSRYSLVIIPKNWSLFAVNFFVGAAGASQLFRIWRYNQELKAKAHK

B1: nanobody CA19425 (VHH)
VHH: QVQLVESGGGLVQAGGSLRLSCAASGRTFSAYGISTYTMGWFRQAPGKEREFVAAIGRDSGFTYYEDSVKGRFTINADNAENTVYLQMNSLKPEDTAVYYCAASSYYGRPNVDLMAYWGKGTQVTVPP
notes: as the nanobody part of m4, held in the PMb chain of the deposited entries (modelled residues 4 to 131); One of six nanobodies (four families); also called MPC2-specific nanobody; source: from a phage display library (pMESy4) of a llama immunised with hMPC1L/MPC2 proteoliposomes
  binding result: binds
